Substrate: C[N+](C)(C)CCO
Experiment: cells, lysate or membranes
Format: cell-based, Clonorchis sinensis
Details: ND96 (96 mM Na+), pH 7.4, 22–25°C, sodium-dependent, labelled compound

B1: CsChT (Clonorchis sinensis) (protein)
chain: MLYIPGLIAIIIFYLLILLVGFWAARKSRSNPAGTTETEDVMLAGRNIGLIVGIFTMTATWVGGGYINGTAENTFRPGQGLVWCQAPIGYAASLVLGGFFFAKRMRSLAFVTMLDPFQNKYGERMCGLLFIPALLGETFWSAAILSALGATLGVIVELDHTTSVIISACIALLYTLFGGLYSVAYTDVVQLFCIFVGLWISLPFALLNKATVPISQTWDRWKGSVEAVDAGIYVDNLLMLTFGGIPWQVYFQRVLSCRTAKQAQILSFVAAIGCLIMALPSVLIGAVGASTDWNMTGYGRAENFTIPDGEAKLVLPLVLRYLCPVWVSFVGLGAVSAAVMSSSDSSVLSAASMFARNVVKPVFWQSATERQIIWVMRASIFGVGALSCLLAICIQSIYGLWYLCSDLIYVILFPQLICVLYVRFSNTYGSLIGYILGLFVRLTSGEALLGLPALFKYPYFYDDPQDFYQRFPCKTFAMLCTLVVTIVVSYFTDLYFRKDSKRLKYDFFHCYKQRASASGSIHIGNRFNRPSIRTAKLPIQVPEVDSENADVDENSNKNSNTLDNNKPLA
- Km: 8.3 µM
